Reference: article PMC3458930

Key:
caspase-7 = caspase-7 (UniProt P55210); test: co-immunoprecipitation, Flag-tagged αB-crystallin; settings: reference: wild type; sites S45
caspase-3 = caspase-3 (UniProt P42574); test: co-immunoprecipitation, Flag-tagged αB-crystallin; settings: reference: wild type; sites S45

αB-crystallin (from UniProt P02511) S45A
binding against the reference (caspase-7): weaker
binding against the reference (caspase-3): weaker
